Common to all, as to assay: gcPBM; about 25 ug protein; PBS, 1% milk, 0.2 mg/ml BSA, salmon testes DNA, 0.03% Triton X-100
Details in all cases: tags: N-terminal GST (pGEX-4T-1), kept; label: surface-attached array probe

One series deals with T1, AP2-HC D1 (Plasmodium falciparum, UniProt Q8IKR9 1316-1374).
T1 sequence: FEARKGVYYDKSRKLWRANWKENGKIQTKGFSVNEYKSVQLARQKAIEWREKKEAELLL

Another series has as its target T2, AP2-LT D1 (Plasmodium falciparum, UniProt Q8IAM1 2520-2577).
T2 sequence: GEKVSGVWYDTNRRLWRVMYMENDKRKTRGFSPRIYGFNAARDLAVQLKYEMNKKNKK

For a further series, the target named is T3, PF3D7_0420300 D1 (Plasmodium falciparum, UniProt Q8I1N6 1956-2015).
T3 sequence: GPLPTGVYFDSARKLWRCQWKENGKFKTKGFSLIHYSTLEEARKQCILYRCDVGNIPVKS

B1: CACACA_negctrl_site1027 (dsDNA)
DNA 1: ATTAAAAAGACAAAAAAAAAATTTTTTTTTTTTTTT
DNA 2: AAAAAAAAAAAAAAATTTTTTTTTTGTCTTTTTAAT
As to B1, the binding signal in the series with AP2-HC D1 is 9.26 ln median PBM intensity, better of two orientations; with AP2-LT D1, 8.44 ln median PBM intensity, better of two orientations.

B2: CACACA_negctrl_site1509 (dsDNA)
DNA 1: TTTAAAAAATGTTATATTATATAATTAAAAAAAAAA
DNA 2: TTTTTTTTTTAATTATATAATATAACATTTTTTAAA
Turning to B2, the binding signal is 9.35 ln median PBM intensity, better of two orientations in the series with AP2-HC D1 and 8.38 ln median PBM intensity, better of two orientations in the series with AP2-LT D1.

B3: CACACA_site6215 (dsDNA)
DNA 1: AAAAAAAAAAGACACACACACACATAAATATAAATA
DNA 2: TATTTATATTTATGTGTGTGTGTGTCTTTTTTTTTT
Consider B3, for which the binding signal was 10.3 ln median PBM intensity, better of two orientations in the series with PF3D7_0420300 D1 and 12.2 ln median PBM intensity, better of two orientations in the series with AP2-HC D1.

B4: CACACA_negctrl_site709 (dsDNA)
DNA 1: TGAAAAAAAAAAAAAAAAAAAAGAAAAAAAAAAAAA
DNA 2: TTTTTTTTTTTTTCTTTTTTTTTTTTTTTTTTTTCA
Turning to B4, the binding signal with AP2-HC D1 is 8.7 ln median PBM intensity, better of two orientations; with AP2-LT D1, 8.21 ln median PBM intensity, better of two orientations.

B5: CACACA_site2431 (dsDNA)
DNA 1: AACAAACACAGACACACACACACACCCAAATGATTA
DNA 2: TAATCATTTGGGTGTGTGTGTGTGTCTGTGTTTGTT
For B5, the binding signal with AP2-HC D1 is 11.7 ln median PBM intensity, better of two orientations; with AP2-LT D1, 10.8 ln median PBM intensity, better of two orientations.

B6: CACACA_site362 (dsDNA)
DNA 1: CACCCACACCAACACACACACATATATATATATATA
DNA 2: TATATATATATATATGTGTGTGTGTTGGTGTGGGTG
In the case of B6, the binding signal in the series with AP2-HC D1 is 11.7 ln median PBM intensity, better of two orientations; with AP2-LT D1 it was 10.8 ln median PBM intensity, better of two orientations.

B7: CACACA_site4184 (dsDNA)
DNA 1: TGAATAAATAAACACACACACATATATATATCTGTA
DNA 2: TACAGATATATATATGTGTGTGTGTTTATTTATTCA
Take B7: the binding signal with AP2-HC D1 was 10.8 ln median PBM intensity, better of two orientations; in the series with AP2-LT D1, 10.1 ln median PBM intensity, better of two orientations.

B8: CACACA_site5576 (dsDNA)
DNA 1: AAAAAAAAAAAACACACACACACACCGACACATACA
DNA 2: TGTATGTGTCGGTGTGTGTGTGTGTTTTTTTTTTTT
Regarding B8, the binding signal is 12.5 ln median PBM intensity, better of two orientations with AP2-HC D1 and 10.6 ln median PBM intensity, better of two orientations with AP2-LT D1.

B9: CACACA_site7363 (dsDNA)
DNA 1: AAAAAAAAAAGACACACACACACACGGACACATACA
DNA 2: TGTATGTGTCCGTGTGTGTGTGTGTCTTTTTTTTTT
For B9, the binding signal in the series with AP2-HC D1 is 11.9 ln median PBM intensity, better of two orientations; with AP2-LT D1, 10.2 ln median PBM intensity, better of two orientations.

B10: CACACA_negctrl_site1674 (dsDNA)
DNA 1: TATTTTAATTATAAATTTAAAAAAAAAAAGAAAAAA
DNA 2: TTTTTTCTTTTTTTTTTTAAATTTATAATTAAAATA
As for B10, the binding signal was 9.42 ln median PBM intensity, better of two orientations with AP2-HC D1 and 8.52 ln median PBM intensity, better of two orientations with AP2-LT D1.

B11: CACACA_negctrl_site934 (dsDNA)
DNA 1: AATTTTATTTAATTTTTTTGGGAAATGATAAAATTT
DNA 2: AAATTTTATCATTTCCCAAAAAAATTAAATAAAATT
As for B11, the binding signal with AP2-HC D1 is 9.22 ln median PBM intensity, better of two orientations; in the series with AP2-LT D1, 8.39 ln median PBM intensity, better of two orientations.

B12: CACACA_negctrl_site1538 (dsDNA)
DNA 1: TTTTTTTTTAAGATGAAGATCAATATATAAATATAT
DNA 2: ATATATTTATATATTGATCTTCATCTTAAAAAAAAA
As for B12, the binding signal in the series with AP2-HC D1 was 8.98 ln median PBM intensity, better of two orientations; in the series with AP2-LT D1, 8.23 ln median PBM intensity, better of two orientations.

B13: CACACA_site7754 (dsDNA)
DNA 1: TAAAATAAAACAAACACACACACACGGACACAAAAA
DNA 2: TTTTTGTGTCCGTGTGTGTGTGTTTGTTTTATTTTA
Turning to B13, the binding signal was 10.4 ln median PBM intensity, better of two orientations in the series with PF3D7_0420300 D1 and 11.9 ln median PBM intensity, better of two orientations with AP2-HC D1.

B14: CACACA_site365 (dsDNA)
DNA 1: CACCCCCACAGACACACACACACACCCACATATATA
DNA 2: TATATATGTGGGTGTGTGTGTGTGTCTGTGGGGGTG
Regarding B14, the binding signal in the series with PF3D7_0420300 D1 is 10.4 ln median PBM intensity, better of two orientations; in the series with AP2-HC D1, 10.8 ln median PBM intensity, better of two orientations.

B15: CACACA_site4721 (dsDNA)
DNA 1: AACATTATAGGACACACACACACATATATATATATA
DNA 2: TATATATATATATGTGTGTGTGTGTCCTATAATGTT
With B15, the binding signal was 11.9 ln median PBM intensity, better of two orientations with AP2-HC D1 and 10.7 ln median PBM intensity, better of two orientations with AP2-LT D1.

B16: CACACA_site2430 (dsDNA)
DNA 1: CAAACAAACAGACACACACACACACCCAAAAATGAT
DNA 2: ATCATTTTTGGGTGTGTGTGTGTGTCTGTTTGTTTG
In the case of B16, the binding signal in the series with AP2-HC D1 was 12.2 ln median PBM intensity, better of two orientations; with AP2-LT D1 it was 10.6 ln median PBM intensity, better of two orientations.

B17: CACACA_negctrl_site358 (dsDNA)
DNA 1: TGTTTCCAAAAAAAAAAAAAAAAAAAAAAAAAAAAA
DNA 2: TTTTTTTTTTTTTTTTTTTTTTTTTTTTTGGAAACA
As for B17, the binding signal with AP2-HC D1 is 8.96 ln median PBM intensity, better of two orientations; with AP2-LT D1 it was 8.01 ln median PBM intensity, better of two orientations.

B18: CACACA_site6350 (dsDNA)
DNA 1: CACAAACAGACAAACACACACACACGGACATACATA
DNA 2: TATGTATGTCCGTGTGTGTGTGTTTGTCTGTTTGTG
With B18, the binding signal with AP2-HC D1 was 10.6 ln median PBM intensity, better of two orientations; in the series with AP2-LT D1, 10.2 ln median PBM intensity, better of two orientations.

B19: CACACA_site4689 (dsDNA)
DNA 1: ATAACCTAATAATACACACACATGAATATATATAAT
DNA 2: ATTATATATATTCATGTGTGTGTATTATTAGGTTAT
On to B19, for which the binding signal is 10.4 ln median PBM intensity, better of two orientations with AP2-HC D1 and 9.77 ln median PBM intensity, better of two orientations in the series with AP2-LT D1.

B20: CACACA_negctrl_site1599 (dsDNA)
DNA 1: TTTTTAAATTATTTGAAAAAAAGAAAATTATAAACA
DNA 2: TGTTTATAATTTTCTTTTTTTCAAATAATTTAAAAA
Regarding B20, the binding signal with AP2-HC D1 is 9.26 ln median PBM intensity, better of two orientations; with AP2-LT D1, 8.26 ln median PBM intensity, better of two orientations.

B21: CACACA_site8345 (dsDNA)
DNA 1: AATACCCAAGGACACACACACACATATATATATATA
DNA 2: TATATATATATATGTGTGTGTGTGTCCTTGGGTATT
In the case of B21, the binding signal was 11.8 ln median PBM intensity, better of two orientations in the series with AP2-HC D1 and 10.8 ln median PBM intensity, better of two orientations in the series with AP2-LT D1.

B22: CACACA_negctrl_site22 (dsDNA)
DNA 1: TTTTAAGATATAAATTAATACTTATATATATAGATA
DNA 2: TATCTATATATATAAGTATTAATTTATATCTTAAAA
On to B22, for which the binding signal in the series with AP2-HC D1 was 9.27 ln median PBM intensity, better of two orientations; with AP2-LT D1 it was 8.45 ln median PBM intensity, better of two orientations.

B23: CACACA_site1724 (dsDNA)
DNA 1: TATATACGCAAACACACACACACATACACCCACATA
DNA 2: TATGTGGGTGTATGTGTGTGTGTGTTTGCGTATATA
With B23, the binding signal with AP2-HC D1 was 11.9 ln median PBM intensity, better of two orientations; in the series with AP2-LT D1, 10.4 ln median PBM intensity, better of two orientations.

B24: CACACA_site4553 (dsDNA)
DNA 1: AAAAAAAGATTATACACACACATATATAAACATACA
DNA 2: TGTATGTTTATATATGTGTGTGTATAATCTTTTTTT
Regarding B24, the binding signal with PF3D7_0420300 D1 was 10.1 ln median PBM intensity, better of two orientations; with AP2-HC D1, 10.7 ln median PBM intensity, better of two orientations.

B25: CACACA_site8410 (dsDNA)
DNA 1: AAAAAATCACAACACACACACACACTAATAAAAAAA
DNA 2: TTTTTTTATTAGTGTGTGTGTGTGTTGTGATTTTTT
In the case of B25, the binding signal with AP2-HC D1 was 12.3 ln median PBM intensity, better of two orientations; in the series with AP2-LT D1, 10.7 ln median PBM intensity, better of two orientations.

B26: CACACA_negctrl_site803 (dsDNA)
DNA 1: TTTTGTAAAAAAAAAAAAAAAGGAAAATTAAAATAA
DNA 2: TTATTTTAATTTTCCTTTTTTTTTTTTTTTACAAAA
Turning to B26, the binding signal with AP2-HC D1 is 9.16 ln median PBM intensity, better of two orientations; with AP2-LT D1, 8.33 ln median PBM intensity, better of two orientations.

These data come from article PMC11417369, “DNA sequence and chromatin differentiate sequence-specific transcription factor binding in the human malaria parasite Plasmodium falciparum”.
